Positions of bridges follow the written chain, without caps; N, C: chain ends. Non-standard residues stand in square brackets, D forms with d. Bip = N[C@@H](Cc1ccc(-c2ccccc2)cc1)C(=O)O; 1Nal = N[C@@H](Cc1cccc2ccccc12)C(=O)O; 2Nal = N[C@@H](Cc1ccc2ccccc2c1)C(=O)O; NMeNle = CCCC[C@H](NC)C(=O)O; NMeV = CN[C@H](C(=O)O)C(C)C; NMeA = CN[C@@H](C)C(=O)O; Sar = CNCC(=O)O

Data on 13 molecules can be found in patent US20140294898A1 (published 2014).

Sequences and labels used below:
B1: Compound No. 17 (peptide)
peptide: {CH2CO}-F[NMeA]NPHL[Sar]WSA[NMeNle][NMeNle]RCG-NH2
modifications: thioether N-14
SMILES: CCCC[C@H]1C(=O)N(C)[C@@H](CCCC)C(=O)N[C@@H](CCCNC(=N)N)C(=O)N[C@H](C(=O)NCC(N)=O)CSCC(=O)N[C@@H](Cc2ccccc2)C(=O)N(C)[C@@H](C)C(=O)N[C@@H](CC(N)=O)C(=O)N2CCC[C@H]2C(=O)N[C@@H](Cc2c[nH]cn2)C(=O)N[C@@H](CC(C)C)C(=O)N(C)CC(=O)N[C@@H](Cc2c[nH]c3ccccc23)C(=O)N[C@@H](CO)C(=O)N[C@@H](C)C(=O)N1C
B2: Compound No. 30 (peptide)
peptide: {CH2CO}-Y[NMeA]NPHL[Sar]WSW[NMeNle][NMeNle]RCG-NH2
modifications: thioether N-14
SMILES: CCCC[C@H]1C(=O)N(C)[C@@H](CCCC)C(=O)N[C@@H](CCCNC(=N)N)C(=O)N[C@H](C(=O)NCC(N)=O)CSCC(=O)N[C@@H](Cc2ccc(O)cc2)C(=O)N(C)[C@@H](C)C(=O)N[C@@H](CC(N)=O)C(=O)N2CCC[C@H]2C(=O)N[C@@H](Cc2c[nH]cn2)C(=O)N[C@@H](CC(C)C)C(=O)N(C)CC(=O)N[C@@H](Cc2c[nH]c3ccccc23)C(=O)N[C@@H](CO)C(=O)N[C@@H](Cc2c[nH]c3ccccc23)C(=O)N1C
B3: Compound No. 22 (peptide)
peptide: {CH2CO}-F[NMeA]NPHL[Sar]WSW[NMeNle][NMeNle]ACG-NH2
modifications: thioether N-14
SMILES: CCCC[C@H]1C(=O)N(C)[C@@H](CCCC)C(=O)N[C@@H](C)C(=O)N[C@H](C(=O)NCC(N)=O)CSCC(=O)N[C@@H](Cc2ccccc2)C(=O)N(C)[C@@H](C)C(=O)N[C@@H](CC(N)=O)C(=O)N2CCC[C@H]2C(=O)N[C@@H](Cc2c[nH]cn2)C(=O)N[C@@H](CC(C)C)C(=O)N(C)CC(=O)N[C@@H](Cc2c[nH]c3ccccc23)C(=O)N[C@@H](CO)C(=O)N[C@@H](Cc2c[nH]c3ccccc23)C(=O)N1C
B4: Compound No. 41 (peptide)
peptide: {CH2CO}-F[NMeV]NPHL[Sar]WSW[NMeNle][NMeNle]RCG-NH2
modifications: thioether N-14
SMILES: CCCC[C@H]1C(=O)N(C)[C@@H](CCCC)C(=O)N[C@@H](CCCNC(=N)N)C(=O)N[C@H](C(=O)NCC(N)=O)CSCC(=O)N[C@@H](Cc2ccccc2)C(=O)N(C)[C@@H](C(C)C)C(=O)N[C@@H](CC(N)=O)C(=O)N2CCC[C@H]2C(=O)N[C@@H](Cc2c[nH]cn2)C(=O)N[C@@H](CC(C)C)C(=O)N(C)CC(=O)N[C@@H](Cc2c[nH]c3ccccc23)C(=O)N[C@@H](CO)C(=O)N[C@@H](Cc2c[nH]c3ccccc23)C(=O)N1C
B5: Compound No. 25 (peptide)
peptide: {CH2CO}-W[NMeA]NPHL[Sar]WSW[NMeNle][NMeNle]RCG-NH2
modifications: thioether N-14
SMILES: CCCC[C@H]1C(=O)N(C)[C@@H](CCCC)C(=O)N[C@@H](CCCNC(=N)N)C(=O)N[C@H](C(=O)NCC(N)=O)CSCC(=O)N[C@@H](Cc2c[nH]c3ccccc23)C(=O)N(C)[C@@H](C)C(=O)N[C@@H](CC(N)=O)C(=O)N2CCC[C@H]2C(=O)N[C@@H](Cc2c[nH]cn2)C(=O)N[C@@H](CC(C)C)C(=O)N(C)CC(=O)N[C@@H](Cc2c[nH]c3ccccc23)C(=O)N[C@@H](CO)C(=O)N[C@@H](Cc2c[nH]c3ccccc23)C(=O)N1C
B6: Compound No. 43 (peptide)
peptide: {CH2CO}-F[NMeA]GPHL[Sar]WSW[NMeNle][NMeNle]RCG-NH2
modifications: thioether N-14
SMILES: CCCC[C@H]1C(=O)N(C)[C@@H](CCCC)C(=O)N[C@@H](CCCNC(=N)N)C(=O)N[C@H](C(=O)NCC(N)=O)CSCC(=O)N[C@@H](Cc2ccccc2)C(=O)N(C)[C@@H](C)C(=O)NCC(=O)N2CCC[C@H]2C(=O)N[C@@H](Cc2c[nH]cn2)C(=O)N[C@@H](CC(C)C)C(=O)N(C)CC(=O)N[C@@H](Cc2c[nH]c3ccccc23)C(=O)N[C@@H](CO)C(=O)N[C@@H](Cc2c[nH]c3ccccc23)C(=O)N1C
B7: Compound No. 21 (peptide)
peptide: FANPHLGWSWXARCG
HELM: PEPTIDE1{[O=C(C[*:3])[*:2]].F.[meA].N.P.H.L.[Sar].W.S.W.[CCCC[C@@H](C(=O)[*:2])N(C)[*:1]].[meA].R.C.G.[am]}$PEPTIDE1,PEPTIDE1,1:R3-15:R3$$$V2.0
SMILES: CCCC[C@H]1C(=O)N(C)[C@@H](C)C(=O)N[C@@H](CCCNC(=N)N)C(=O)N[C@H](C(=O)NCC(N)=O)CSCC(=O)N[C@@H](Cc2ccccc2)C(=O)N(C)[C@@H](C)C(=O)N[C@@H](CC(N)=O)C(=O)N2CCC[C@H]2C(=O)N[C@@H](Cc2c[nH]cn2)C(=O)N[C@@H](CC(C)C)C(=O)N(C)CC(=O)N[C@@H](Cc2c[nH]c3ccccc23)C(=O)N[C@@H](CO)C(=O)N[C@@H](Cc2c[nH]c3ccccc23)C(=O)N1C
B8: Compound No. 19 (peptide)
peptide: FANPHLGWSWAXRCG
HELM: PEPTIDE1{[O=C(C[*:3])[*:2]].F.[meA].N.P.H.L.[Sar].W.S.W.[meA].[CCCC[C@@H](C(=O)[*:2])N(C)[*:1]].R.C.G.[am]}$PEPTIDE1,PEPTIDE1,1:R3-15:R3$$$V2.0
SMILES: CCCC[C@H]1C(=O)N[C@@H](CCCNC(=N)N)C(=O)N[C@H](C(=O)NCC(N)=O)CSCC(=O)N[C@@H](Cc2ccccc2)C(=O)N(C)[C@@H](C)C(=O)N[C@@H](CC(N)=O)C(=O)N2CCC[C@H]2C(=O)N[C@@H](Cc2c[nH]cn2)C(=O)N[C@@H](CC(C)C)C(=O)N(C)CC(=O)N[C@@H](Cc2c[nH]c3ccccc23)C(=O)N[C@@H](CO)C(=O)N[C@@H](Cc2c[nH]c3ccccc23)C(=O)N(C)[C@@H](C)C(=O)N1C
B9: Compound No. 27 (peptide)
peptide: {CH2CO}-[1Nal][NMeA]NPHL[Sar]WSW[NMeNle][NMeNle]RCG-NH2
modifications: thioether N-14
SMILES: CCCC[C@H]1C(=O)N(C)[C@@H](CCCC)C(=O)N[C@@H](CCCNC(=N)N)C(=O)N[C@H](C(=O)NCC(N)=O)CSCC(=O)N[C@@H](Cc2cccc3ccccc23)C(=O)N(C)[C@@H](C)C(=O)N[C@@H](CC(N)=O)C(=O)N2CCC[C@H]2C(=O)N[C@@H](Cc2c[nH]cn2)C(=O)N[C@@H](CC(C)C)C(=O)N(C)CC(=O)N[C@@H](Cc2c[nH]c3ccccc23)C(=O)N[C@@H](CO)C(=O)N[C@@H](Cc2c[nH]c3ccccc23)C(=O)N1C
B10: Compound No. 24 (peptide)
peptide: {CH2CO}-F[NMeA]NPHL[Sar]WSW[NMeNle][NMeNle]RC-NH2
modifications: thioether N-14
SMILES: CCCC[C@H]1C(=O)N(C)[C@@H](CCCC)C(=O)N[C@@H](CCCNC(=N)N)C(=O)N[C@H](C(N)=O)CSCC(=O)N[C@@H](Cc2ccccc2)C(=O)N(C)[C@@H](C)C(=O)N[C@@H](CC(N)=O)C(=O)N2CCC[C@H]2C(=O)N[C@@H](Cc2c[nH]cn2)C(=O)N[C@@H](CC(C)C)C(=O)N(C)CC(=O)N[C@@H](Cc2c[nH]c3ccccc23)C(=O)N[C@@H](CO)C(=O)N[C@@H](Cc2c[nH]c3ccccc23)C(=O)N1C
B11: Compound No. 28 (peptide)
peptide: {CH2CO}-[Bip][NMeA]NPHL[Sar]WSW[NMeNle][NMeNle]RCG-NH2
modifications: thioether N-14
SMILES: CCCC[C@H]1C(=O)N(C)[C@@H](CCCC)C(=O)N[C@@H](CCCNC(=N)N)C(=O)N[C@H](C(=O)NCC(N)=O)CSCC(=O)N[C@@H](Cc2ccc(-c3ccccc3)cc2)C(=O)N(C)[C@@H](C)C(=O)N[C@@H](CC(N)=O)C(=O)N2CCC[C@H]2C(=O)N[C@@H](Cc2c[nH]cn2)C(=O)N[C@@H](CC(C)C)C(=O)N(C)CC(=O)N[C@@H](Cc2c[nH]c3ccccc23)C(=O)N[C@@H](CO)C(=O)N[C@@H](Cc2c[nH]c3ccccc23)C(=O)N1C
B12: Compound No. 12 (peptide)
peptide: {CH2CO}-F[NMeA]NPHLGWSW[NMeNle][NMeNle]RCG-NH2
modifications: thioether N-14
SMILES: CCCC[C@H]1C(=O)N(C)[C@@H](CCCC)C(=O)N[C@@H](CCCNC(=N)N)C(=O)N[C@H](C(=O)NCC(N)=O)CSCC(=O)N[C@@H](Cc2ccccc2)C(=O)N(C)[C@@H](C)C(=O)N[C@@H](CC(N)=O)C(=O)N2CCC[C@H]2C(=O)N[C@@H](Cc2c[nH]cn2)C(=O)N[C@@H](CC(C)C)C(=O)NCC(=O)N[C@@H](Cc2c[nH]c3ccccc23)C(=O)N[C@@H](CO)C(=O)N[C@@H](Cc2c[nH]c3ccccc23)C(=O)N1C
B13: Compound No. 26 (peptide)
peptide: {CH2CO}-[2Nal][NMeA]NPHL[Sar]WSW[NMeNle][NMeNle]RCG-NH2
modifications: thioether N-14
SMILES: CCCC[C@H]1C(=O)N(C)[C@@H](CCCC)C(=O)N[C@@H](CCCNC(=N)N)C(=O)N[C@H](C(=O)NCC(N)=O)CSCC(=O)N[C@@H](Cc2ccc3ccccc3c2)C(=O)N(C)[C@@H](C)C(=O)N[C@@H](CC(N)=O)C(=O)N2CCC[C@H]2C(=O)N[C@@H](Cc2c[nH]cn2)C(=O)N[C@@H](CC(C)C)C(=O)N(C)CC(=O)N[C@@H](Cc2c[nH]c3ccccc23)C(=O)N[C@@H](CO)C(=O)N[C@@H](Cc2c[nH]c3ccccc23)C(=O)N1C

T1 sequence (Q9NZQ7 other isoform, or with tags, fused parts or gaps limits assumed): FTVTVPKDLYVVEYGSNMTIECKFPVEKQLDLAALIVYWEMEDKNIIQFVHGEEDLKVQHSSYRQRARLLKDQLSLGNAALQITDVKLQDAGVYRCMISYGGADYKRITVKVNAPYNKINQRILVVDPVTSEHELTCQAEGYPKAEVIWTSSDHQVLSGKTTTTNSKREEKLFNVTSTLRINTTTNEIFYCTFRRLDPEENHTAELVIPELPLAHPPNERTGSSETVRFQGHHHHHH

This assay concerns the target T1, hPDL1(19-239)-TVMV-His (human, UniProt Q9NZQ7 19-239).
T1 construct: The text says amino acids 18-239, the construct name says 19-239; Expressed in HEK293T cells; Used at 10 nM final in the HTRF assay; also called PD-L1-His; PD-L1-TVMV-His
The assay can be described thus: HTRF competition, PD-1-Ig binding to PD-L1-His. As to the method: All binding studies were performed in an HTRF assay buffer consisting of dPBS supplemented with 0.1% (w/v) bovine serum albumin and 0.05% (v/v) Tween-20. […] PD-L1 fusion proteins from either human, cynomologous macaques, or mouse were used. HTRF detection was achieved using europium crypate-labeled anti-Ig monoclonal antibody (1 nM final) and allophycocyanin (APC) labeled anti-His monoclonal antibody (20 nM final). Antibodies were diluted in HTRF detection buffer and 5 μl was dispensed on top of binding reaction. The reaction was allowed to equilibrate for 30 minutes and signal (665 nm/620 nm ratio) was obtained using an EnVision fluorometer. […]
HTRF Experiments were performed essentially as outlined supra. Variant macrocyclic peptides were created as outlined herein.
For the molecule B1, the IC50 (commonly the concentration at which inhibition is half-maximal) came out at 7540 nM. To B2 belongs 5 nM. To B3 belongs 3 nM; to B4, 921 nM; to B5, 27 nM. With B6, the IC50 stood at 554 nM. To B7 belongs 21 nM.

B8: the IC50 was determined as 33 nM. For the molecule B9, the IC50 came to 20 nM.

B10 had an IC50 of 9 nM.

In turn, B11 had an IC50 of 117 nM. This IC50 is about 13-fold higher than that of the molecule before.

For B12, the IC50 came to 22 nM.

The molecule B13 came in with an IC50 of 15 nM.
